# Laboratory results published in patent US20080023859A1, “Glycopeptides and Temperature-Responsive Micelles” (Toagosei Co., Ltd., priority 2003, published 2008).
# Assay: Measurement of micelle formation by dynamic light scattering (particle diameter)
# Assay type: physicochemical
# Settings: DLS in solution at various temperatures
# Experimental: The micelle formation was observed by measuring the particle diameter of glycopeptides using dynamic light scattering (DLS; HK-6600 manufactured by Otsuka Electronics Co., Ltd.).
# For the solution of Compound 1, the temperature was varied between a temperature range of 15° C. to 35° C. for 15 minutes, the temperature variation was repeated, and the particle diameters were measured at 15° C. and 35° C..
substance,measurement,value
NH2-Val-Pro-Gly-Val-Gly-Val-Pro-Gly-Val-Gly-OH (H-VPGVGVPGVG-OH) [reference peptide molecule],particle diameter of aggregate (in words),very large particle diameter
